Reference: the supplement of paper PMC10567573

B1: CHCHD6 (parent)
chain: MYKLSSEQFHEAASKMESTIKPRR

Variants of: B1
Assay: protein stability index of a GFP-peptide fusion (GPS, HEK-293T) (PSI 1-6); higher = more stable
Settings: c terminus: a fixed tail appended
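Also: lentivirally expressed fusions sorted by FACS into six bins by GFP to DsRed ratio, PSI derived from sequencing read proportions per bin multiplied by bin number.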

| Variant | protein stability index |
| --- | --- |
| MYKLSSEQFHEAASKMESWIKPRR [T19W] | 2.15 |
| MYKLSSEQFHEAASKMESMIKPRR [T19M] | 3.72 |
| MYKLSSEQFHEAASKMESRIKPRR [T19R] | 3.88 |
| MYKLSSEQFHEAASKMESVIKPRR [T19V] | 3.82 |
| MYKLSSEQFHEAASKMESLIKPRR [T19L] | 3.67 |
| MYKLSSEQFHEAASKMESYIKPRR [T19Y] | 3.4 |
| MYKLSSEQFHEAASKMESSIKPRR [T19S] | 3.82 |
| MYKLSSEQFHEAASKMESPIKPRR [T19P] | 3.68 |
| MYKLSSEQFHEAASKMESKIKPRR [T19K] | 3.77 |
| MYKLSSEQFHEAASKMESQIKPRR [T19Q] | 4.09 |
| MYKLSSEQFHEAASKMESNIKPRR [T19N] | 4 |
| MYKLSSEQFHEAASKMESTIKMRR [P22M] | 3.86 |
| MYKLSSEQFHEAASKMESTIKNRR [P22N] | 3.46 |
| MYKLSSEQFHEAASKMESTIKGRR [P22G] | 3.56 |
| MYKLSSEQFHEAASKMESTIKERR [P22E] | 3.93 |
| MYKLSSEQFHEAASKMESTIKSRR [P22S] | 4.03 |
| MYKLSSEQFHEAASKMESTIKCRR [P22C] | 4.05 |
| MYKLSSEQFHEAASKMESTIKFRR [P22F] | 3 |
| MYKLSSEQFHEAASKMESTIKWRR [P22W] | 2.58 |
| MYKLSSEQFHEAASKMESTIKHRR [P22H] | 3.91 |
| MYKLSSEQFHEAASKMESTIKRRR [P22R] | 3.83 |
| MYKLSSEQFHEAASKMESTIKIRR [P22I] | 3.53 |
| MYKLSSEQFHEAASKMESTIKTRR [P22T] | 4.09 |
| MYKLSSEQFHEAASKMESTIKVRR [P22V] | 3.6 |

| Variant | protein stability index |
| --- | --- |
| MYKLSSEQFHEAASKMESTIKDRR [P22D] | 4.26 |
| MYKLSSEQFHEAASKMESTIKARR [P22A] | 3.46 |
| MYKLSSEQFHEAASKMESTIKQRR [P22Q] | 3.86 |
| MYKLSSEQFHEAASKMESTIKLRR [P22L] | 3.92 |
| MYKLSSEQFHEAASKMESTIKKRR [P22K] | 3.8 |
| MYKLSSEQFHEAASKMESTIKYRR [P22Y] | 3 |
| MYKLSSEQFHEAASKMESTVKPRR [I20V] | 4.08 |
| MYKLSSEQFHEAASKMESTDKPRR [I20D] | 4.22 |
| MYKLSSEQFHEAASKMESTFKPRR [I20F] | 3.51 |
| MYKLSSEQFHEAASKMESTRKPRR [I20R] | 3.97 |
| MYKLSSEQFHEAASKMESTEKPRR [I20E] | 4.74 |
| MYKLSSEQFHEAASKMESTTKPRR [I20T] | 4.25 |
| MYKLSSEQFHEAASKMESTAKPRR [I20A] | 4.38 |
| MYKLSSEQFHEAASKMESTMKPRR [I20M] | 4.21 |
| MYKLSSEQFHEAASKMESTLKPRR [I20L] | 3.23 |
| MYKLSSEQFHEAASKMESTSKPRR [I20S] | 4.21 |
| MYKLSSEQFHEAASKMESTKKPRR [I20K] | 4.05 |
| MYKLSSEQFHEAASKMESTNKPRR [I20N] | 3.56 |
| MYKLSSEQFHEAASKMESTCKPRR [I20C] | 4.01 |
| MYKLSSEQFHEAASKMESTWKPRR [I20W] | 3.07 |
| MYKLSSEQFHEAASKMESTHKPRR [I20H] | 3.95 |
| MYKLSSEQFHEAASKMESTYKPRR [I20Y] | 3.44 |
| MYKLSSEQFHEAASKMESTPKPRR [I20P] | 4.56 |
| MYKLSSEQFHEAASKMESTQKPRR [I20Q] | 3.82 |

| Variant | protein stability index |
| --- | --- |
| MYKLSSEQFHEAASKMESTGKPRR [I20G] | 4.3 |
| MYKLSSEQFHEAASKMESTIKPRC [R24C] | 3.1 |
| MYKLSSEQFHEAASKMESTIKPRY [R24Y] | 3.15 |
| MYKLSSEQFHEAASKMESTIKPRF [R24F] | 3.06 |
| MYKLSSEQFHEAASKMESTIKPRQ [R24Q] | 3.65 |
| MYKLSSEQFHEAASKMESTIKPRD [R24D] | 4.2 |
| MYKLSSEQFHEAASKMESTIKPRP [R24P] | 3.7 |
| MYKLSSEQFHEAASKMESTIKPRS [R24S] | 4.11 |
| MYKLSSEQFHEAASKMESTIKPRE [R24E] | 3.74 |
| MYKLSSEQFHEAASKMESTIKPRM [R24M] | 3.86 |
| MYKLSSEQFHEAASKMESTIKPRV [R24V] | 3.06 |
| MYKLSSEQFHEAASKMESTIKPRH [R24H] | 3.85 |
| MYKLSSEQFHEAASKMESTIKPRL [R24L] | 3.31 |
| MYKLSSEQFHEAASKMESTIKPRA [R24A] | 3.91 |
| MYKLSSEQFHEAASKMESTIKPRG [R24G] | 3.39 |
| MYKLSSEQFHEAASKMESTIKPRT [R24T] | 4.12 |
| MYKLSSEQFHEAASKMESTIKPRI [R24I] | 2.86 |
| MYKLSSEQFHEAASKMESTIKPRN [R24N] | 4.18 |
| MYKLSSEQFHEAASKMESTIKPRK [R24K] | 3.86 |
| MYKLSSEQFHEAASKMESTIKPRW [R24W] | 2.56 |
| MYKLSSEQFHEAASKMESTILPRR [K21L] | 3.04 |
| MYKLSSEQFHEAASKMESTIMPRR [K21M] | 3.09 |
| MYKLSSEQFHEAASKMESTIEPRR [K21E] | 4.33 |
| MYKLSSEQFHEAASKMESTIGPRR [K21G] | 3.5 |

| Variant | protein stability index |
| --- | --- |
| MYKLSSEQFHEAASKMESTIVPRR [K21V] | 3.61 |
| MYKLSSEQFHEAASKMESTIIPRR [K21I] | 3.44 |
| MYKLSSEQFHEAASKMESTISPRR [K21S] | 3.68 |
| MYKLSSEQFHEAASKMESTICPRR [K21C] | 4.22 |
| MYKLSSEQFHEAASKMESTIHPRR [K21H] | 3.86 |
| MYKLSSEQFHEAASKMESTIQPRR [K21Q] | 3.22 |
| MYKLSSEQFHEAASKMESTIAPRR [K21A] | 3.49 |
| MYKLSSEQFHEAASKMESTIRPRR [K21R] | 3.9 |
| MYKLSSEQFHEAASKMESTINPRR [K21N] | 3.89 |
| MYKLSSEQFHEAASKMESTIFPRR [K21F] | 3 |
| MYKLSSEQFHEAASKMESTITPRR [K21T] | 3.31 |
| MYKLSSEQFHEAASKMESTIDPRR [K21D] | 3.69 |
| MYKLSSEQFHEAASKMESTIPPRR [K21P] | 4.13 |
| MYKLSSEQFHEAASKMESTIYPRR [K21Y] | 2.33 |
| MYKLSSEQFHEAASKMESTIWPRR [K21W] | 2.48 |
| MYKLSSEQFHEAASKMESTIKPMR [R23M] | 3.65 |
| MYKLSSEQFHEAASKMESTIKPQR [R23Q] | 3.12 |
| MYKLSSEQFHEAASKMESTIKPVR [R23V] | 3.16 |
| MYKLSSEQFHEAASKMESTIKPWR [R23W] | 2.54 |
| MYKLSSEQFHEAASKMESTIKPKR [R23K] | 4.11 |
| MYKLSSEQFHEAASKMESTIKPFR [R23F] | 3 |
| MYKLSSEQFHEAASKMESTIKPLR [R23L] | 2.91 |
